Results published in patent publication US20030199040A1.

Columns and labels:
[1] = molecular target: mIL-18 (purchased from PeproTech) (murine (printed as mIL-18)) (UniProt P70380); assay: cell-based or functional assay
[2] = molecular target: mAcPL and mIL-1Rrp1 cotransfected on cells (COS7 or S49.1) (murine) (UniProt Q61098); assay: cell-based or functional assay
mAcPL and mIL-1Rrp1 cotransfected on cells (COS7 or S49.1) (murine), sequence (Q61098 19-537, chain 1 of 2): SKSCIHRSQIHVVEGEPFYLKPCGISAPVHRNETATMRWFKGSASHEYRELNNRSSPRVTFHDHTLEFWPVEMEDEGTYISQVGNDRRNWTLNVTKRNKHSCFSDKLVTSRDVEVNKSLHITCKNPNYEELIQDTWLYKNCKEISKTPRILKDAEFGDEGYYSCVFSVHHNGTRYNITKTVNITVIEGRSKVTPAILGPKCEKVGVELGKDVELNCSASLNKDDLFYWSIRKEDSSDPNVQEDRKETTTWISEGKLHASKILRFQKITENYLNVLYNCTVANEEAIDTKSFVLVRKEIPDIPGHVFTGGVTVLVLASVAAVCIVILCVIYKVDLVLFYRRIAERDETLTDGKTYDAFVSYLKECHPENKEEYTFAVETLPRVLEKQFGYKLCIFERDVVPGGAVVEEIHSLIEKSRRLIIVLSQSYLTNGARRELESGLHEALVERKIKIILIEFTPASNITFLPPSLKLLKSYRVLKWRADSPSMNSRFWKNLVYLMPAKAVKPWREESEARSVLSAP
mAcPL and mIL-1Rrp1 cotransfected on cells (COS7 or S49.1) (murine), sequence (chain, as listed by the source, chain 2 of 2): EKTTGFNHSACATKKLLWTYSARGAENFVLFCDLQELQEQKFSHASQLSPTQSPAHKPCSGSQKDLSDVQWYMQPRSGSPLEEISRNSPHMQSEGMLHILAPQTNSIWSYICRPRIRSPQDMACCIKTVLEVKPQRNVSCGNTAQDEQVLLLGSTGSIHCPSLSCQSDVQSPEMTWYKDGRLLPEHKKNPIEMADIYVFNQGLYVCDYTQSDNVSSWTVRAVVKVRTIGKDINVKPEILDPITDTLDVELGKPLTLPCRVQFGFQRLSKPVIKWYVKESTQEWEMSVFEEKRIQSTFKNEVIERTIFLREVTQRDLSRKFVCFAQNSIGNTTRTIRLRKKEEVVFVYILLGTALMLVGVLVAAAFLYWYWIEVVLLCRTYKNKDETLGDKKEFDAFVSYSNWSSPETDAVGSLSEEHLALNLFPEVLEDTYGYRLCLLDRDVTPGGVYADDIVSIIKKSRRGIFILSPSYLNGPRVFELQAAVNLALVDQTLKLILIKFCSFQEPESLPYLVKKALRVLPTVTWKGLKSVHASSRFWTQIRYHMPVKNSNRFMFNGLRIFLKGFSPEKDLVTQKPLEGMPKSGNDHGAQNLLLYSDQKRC

mIL-18 (purchased from PeproTech) (murine (printed as mIL-18)), sequence (P70380 36-192 limits assumed): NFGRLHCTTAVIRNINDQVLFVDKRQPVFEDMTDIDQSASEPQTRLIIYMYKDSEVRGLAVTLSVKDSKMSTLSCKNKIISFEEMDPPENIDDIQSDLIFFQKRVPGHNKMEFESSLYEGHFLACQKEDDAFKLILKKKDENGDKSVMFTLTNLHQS

Substance: heterogeneous mIL-1Rrp1-Fc+mAcPL-Fc protein mixture (homodimers of mIL-1Rrp1-Fc, homodimers of mAcPL-Fc, and heterodimeric mIL-1Rrp1-Fc/mAcPL-Fc molecules) (from UniProt Q61098 20-322; Q9Z2B1 20-356) (Fc fusion)
- inhibition of mIL-18 induced NFκB-luciferase activity in Cos7 cells transfected with mIL-1Rrp1 and mAcPL (10 ng/ml mIL-18 preincubated with the protein) [1]: 87%
- luciferase activity (RLU) at 20 ug/ml and 50 ug/ml of the protein mixture; uninduced cells 3×10e3 RLU, mIL-18 without receptor-Fc 25×10e3 RLU [1]: 6000 RLU

Substance: mIL-18 (purchased from PeproTech) (from UniProt P70380 36-192) (ligand)
- increase in NFκB DNA binding activity (NFκB-Luc luciferase reporter), COS cells, 40 ng/mL IL-18 for 4 hours [2]: 10 fold
- increase in NFκB DNA binding activity (NFκB-Luc luciferase reporter), S49.1 cells, 40 ng/mL IL-18 for 4 hours [2]: 300 fold
